Experiment [1] has as its target human CD16A(48R, 158V) ECD fused to monomeric mFc.67 (human) (UniProt P08637). The experiment can be described thus: ELISA, coated antigen-mFc.
The target of experiment [2] is human CD16B(NA1) ECD, mature form (without propeptide), fused to monomeric Fc (human) (UniProt O75015). The experiment can be described thus: ELISA, coated antigen-mFc.
Experiment [3] has as its target T1, CD16A on primary human NK cells (human, UniProt P08637).
T1 construct: full length, on the cell surface; also called FcgRIIIA on enriched human NK cells
The experiment can be described thus: flow cytometry on primary human NK cells at 37 °C, without IgG; anti-His mAb and FITC goat anti-mouse IgG.

The target in experiment [4] is Human CD16A^(48R, 158V) fused to IgG Fc (human) (UniProt P08637). The experiment can be described thus: ELISA, coated antigen-IgG Fc.
Chain of Human CD16A^(48R, 158V) fused to IgG Fc (human) (P08637 17-208 L66R/F176V): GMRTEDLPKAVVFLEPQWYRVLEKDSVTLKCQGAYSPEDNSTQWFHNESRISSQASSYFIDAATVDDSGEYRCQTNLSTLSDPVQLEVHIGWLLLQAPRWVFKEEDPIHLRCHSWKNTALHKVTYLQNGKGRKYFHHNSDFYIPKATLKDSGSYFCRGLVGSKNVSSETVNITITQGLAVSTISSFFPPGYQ
In experiment [5] the target is Human CD16A^(48R, 158F) fused to IgG Fc (human) (UniProt P08637). The experiment can be described thus: ELISA, coated antigen-IgG Fc.
Chain of Human CD16A^(48R, 158F) fused to IgG Fc (human) (P08637 17-208 L66R): as the sequence (P08637 17-208 L66R/F176V) above, with V160F counted along it
Experiment [6] addresses Cynomolgus CD16A fused to IgG Fc (cynomolgus; human) (UniProt Q8SPW2). The experiment can be described thus: ELISA, coated antigen-IgG Fc.
Experiment [7] concerns the target T1, CD16A on primary human NK cells. Briefly: flow cytometry on primary human NK cells at 37 °C, with 10 mg/mL polyclonal human IgG; anti-His mAb and FITC goat anti-mouse IgG.
Experiment [8] concerns the target human CD16B ECD mutant H140Y fused to monomeric mFc.67 (human) (UniProt O75015). Briefly: ELISA, coated antigen-mFc.
Experiment [9] deals with human CD16A(48R, 158V) ECD fused to monomeric mFc.67 (human) (UniProt P08637). Briefly: ELISA, coated antigen-mFc, Protein L-HRP.
Chain of human CD16A(48R, 158V) ECD fused to monomeric mFc.67 (human) (P08637 17-208 L66R/F176V): as the sequence (P08637 17-208 L66R/F176V) above
Experiment [10] concerns the target human CD16B ECD mutant H140Y fused to monomeric mFc.67 (human) (UniProt O75015). The experiment can be described thus: ELISA, coated antigen-mFc, Protein L-HRP.
The target in experiment [11] is Human CD16B^H140Y fused to IgG Fc (human) (UniProt O75015). Briefly: ELISA, coated antigen-IgG Fc.
Chain of Human CD16B^H140Y fused to IgG Fc (human) (O75015 other isoform, or with tags, fused parts or gaps H140Y H140Y limits assumed): as the sequence (P08637 17-208 L66R/F176V) above, with S49N, R50L, I90V, G131D, F187S counted along it
Experiment [12] has as its target Human CD16B(NA1)^pr fused to IgG Fc (human) (UniProt O75015). The experiment can be described thus: ELISA, coated antigen-IgG Fc.
Experiment [13] concerns the target T1, CD16A on primary human NK cells. Briefly: flow cytometry on primary human NK cells at 37 °C, without IgG; anti-His mAb and FITC goat anti-mouse IgG. The source holds these as a separate data set.
Method: (§1) After the last staining step, the cells were washed again and resuspended in 0.2 mL of FACS buffer containing 2 μg/mL propidium iodide (PI) (Sigma, cat.: P4170) in order to exclude dead cells. […] For the calculation of KD, the equation for one-site-binding (hyperbola) was used.
The target in experiment [14] is T2, recombinant EGFR expressed on CHO cells (specificity control) (UniProt P00533 25-1210, limits assumed).
T2 construct: whole, on cells; also called control EGFR antigen
The experiment can be described thus: flow cytometry, MFI in cell binding to recombinant CHO cells; antigen EGFRTM anchored.

The target of experiment [15] is T3, mature ECD of CD16B(NA1) expressed on the CHO cell surface (human, UniProt O75015 17-200).
T3 construct: mature; not shown: membrane anchor: transmembrane domain of human EGFR or GPI anchor
T3 sequence (O75015 other isoform, or with tags, fused parts or gaps): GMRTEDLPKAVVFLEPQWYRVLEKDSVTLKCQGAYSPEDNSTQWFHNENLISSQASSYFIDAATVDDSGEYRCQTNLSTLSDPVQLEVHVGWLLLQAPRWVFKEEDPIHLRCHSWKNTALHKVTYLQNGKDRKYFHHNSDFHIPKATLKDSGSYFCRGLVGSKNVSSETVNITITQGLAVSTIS
Briefly: binding to recombinant CHO cells.

In experiment [16] the target is T4, propeptide-containing ECD of CD16B(NA1) expressed on the CHO cell surface (human, UniProt O75015 17-208).
T4 construct: extracellular domain; not shown: membrane anchor: transmembrane domain of human EGFR or GPI anchor
T4 sequence (O75015 other isoform, or with tags, fused parts or gaps): as the sequence (P08637 17-208 L66R/F176V) above, with S49N, R50L, I90V, G131D, Y142H, F187S counted along it
Briefly: binding to recombinant CHO cells.

Experiment [17] has as its target T1, CD16A on primary human NK cells. Briefly: flow cytometry on primary human NK cells at 37 °C, without IgG; anti-His mAb and FITC goat anti-mouse IgG. The source holds these as a separate data set.
Method: as §1
In experiment [18] the target is T5, huCD16A (48R,158V), EGFRTM anchored (human, UniProt P08637;P00533).
T5 construct: extracellular domain;transmembrane domain; Expressed on recombinant CHO cells; one member of the group m39
T5 sequence (P08637 other isoform, or with tags, fused parts or gaps limits assumed): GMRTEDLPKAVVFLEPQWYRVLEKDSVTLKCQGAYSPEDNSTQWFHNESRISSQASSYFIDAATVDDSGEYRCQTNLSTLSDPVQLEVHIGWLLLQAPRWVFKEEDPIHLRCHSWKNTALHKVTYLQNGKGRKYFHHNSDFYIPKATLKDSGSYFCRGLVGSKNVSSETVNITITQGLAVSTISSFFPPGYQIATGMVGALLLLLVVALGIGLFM
Briefly: flow cytometry, MFI in cell binding to recombinant CHO cells; antigen EGFRTM anchored.

Experiment [19] addresses T3, mature ECD of CD16B(NA1) expressed on …. Described as above.
Experiment [20] deals with T4, propeptide-containing ECD of CD16B(NA1) …. The experiment is described as above.

T1 sequence (P08637 17-254 limits assumed): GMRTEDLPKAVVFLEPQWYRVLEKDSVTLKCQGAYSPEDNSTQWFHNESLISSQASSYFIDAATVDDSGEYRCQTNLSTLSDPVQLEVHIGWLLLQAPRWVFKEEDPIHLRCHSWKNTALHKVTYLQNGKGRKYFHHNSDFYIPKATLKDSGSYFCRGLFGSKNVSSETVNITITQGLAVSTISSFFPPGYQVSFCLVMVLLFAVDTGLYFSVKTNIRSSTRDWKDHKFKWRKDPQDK
Chain of Cynomolgus CD16A fused to IgG Fc (cynomolgus; human) (Q8SPW2 17-208): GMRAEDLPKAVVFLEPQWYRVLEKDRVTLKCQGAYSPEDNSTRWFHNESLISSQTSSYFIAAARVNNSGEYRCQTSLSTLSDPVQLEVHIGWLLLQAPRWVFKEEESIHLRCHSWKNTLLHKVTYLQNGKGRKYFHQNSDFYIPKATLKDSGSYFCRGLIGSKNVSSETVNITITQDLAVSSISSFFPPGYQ
Chain of human CD16B ECD mutant H140Y fused to monomeric mFc.67 (human) (O75015 other isoform, or with tags, fused parts or gaps H140Y H140Y): as the sequence (P08637 17-208 L66R/F176V) above, with S49N, R50L, I90V, G131D, F187S counted along it
Chain of Human CD16B(NA1)^pr fused to IgG Fc (human) (O75015 other isoform, or with tags, fused parts or gaps limits assumed): as the sequence (P08637 17-208 L66R/F176V) above, with S49N, R50L, I90V, G131D, Y142H, F187S counted along it

“scFv antibody comprising the variable heavy and light chain sequences of antibody 3G8”: the EC50 in [1] was 1 nM; in experiment [2], 0.9 nM; in [4], 1.2 nM; in experiment [5], 7.6 nM; in experiment [6], 7.5 nM. For the same molecule, the values for the EC50 (read off the curve) in experiment [3] and in [7] were 3 nM and 20 nM, respectively.

B1: EGFR-1/CD16-1 TandAb (CD16-1) (bispecific antibody)
chain: QVQLQESGPGLVKPSETLSLTCTVSGGSVSSGSYYWSWIRQPPGKGLEWIGYIYYSGSTNYNPSLKSRVTISVDTSKNQFSLKLSSVTAADTAVYYCARNPISIPAFDIWGQGTMVTVSSGGSGGSGGSSYVLTQPSSVSVAPGQTATISCGGHNIGSKNVHWYQQRPGQSPVLVIYQDNKRPSGIPERFSGSNSGNTATLTISGTQAMDEADYYCQVWDNYSVLFGGGTKLTVLGGSGGSQVQLVQSGAEVKKPGESLKVSCKASGYTFTSYYMHWVRQAPGQGLEWMGIINPSGGSTSYAQKFQGRVTMTRDTSTSTVYMELSSLRSEDTAVYYCARGSAYYYDFADYWGQGTLVTVSSGGSGGSGGSQPVLTQPPSVSVAPGKTARITCGGNNIGSKSVHWYQQKPGQAPVLVIYYDSDRPSGIPERFSGSNSGNTATLTISRVEAGDEADYYCQVWDTSSDHVLFGGGTKLTVLAAAGSHHHHHH
Turning to B1, the EC50 was 0.6 nM in [1] and 0.5 nM in [8].

B2: BCMA-1/CD16-2 TandAb (CD16-2) (bispecific antibody)
chain: EVQLLESGGGLVQPGGSLRLSCAASGFTFSNYDMAWVRQAPGKGLEWVSSISTRGDITSYRDSVKGRFTISRDNSKNTLYLQMNSLRAEDTAVYYCARQDYYTDYMGFAYWGQGTLVTVSSGGSGGSGGSGGSSYVLTQPSSVSVAPGQTATISCGGHNIGSKNVHWYQQRPGQSPVLVIYQDNKRPSGIPERFSGSNSGNTATLTISGTQAMDEADYYCQVWDNYSVLFGGGTKLTVLGGSQVQLVQSGAEVKKPGESLKVSCKASGYTFTSYYMHWVRQAPGQGLEWMGAIEPMYGSTSYAQKFQGRVTMTRDTSTSTVYMELSSLRSEDTAVYYCARGSAYYYDFADYWGQGTLVTVSSGGSGGSGGSGGSAIQMTQSPSSLSASVGDRVTITCRASEDIYNGLAWYQQKPGKAPKLLIYGASSLQDGVPSRFSGSGSGTEFTLTISSLQPEDEATYYCAGPHKYPLTFGGGTKVEIK
Take B2: the values for the EC50 in experiment [9] and in experiment [10] were 1.1 nM and 1.2 nM, respectively.

B3: scFv CD16A (CD16-4) (scFv)
scFv: QVQLVQSGAEVKKPGESLKVSCKASGYSFSDFYIQWVRQAPGQGLEWMGIINPGGASTTYAQKFQGRVTMTRDTSTSTVYMELSSLRSEDTAVYYCARGSAYYYDFADYWGQGTLVTVSSGGSGGSGGSGGSGGSGGSSYVLTQPSSVSVAPGQTARITCGGYNIGRQSVHWYQQKPGQAPVLVIYQDSKRPSGIPERFSGSNSGNTATLTISGTQAMDEADYYCQVWDNYTVVFGGGTKLTVLAAAGSHHHHHH
Consider B3, for which the EC50 in [4] turned out to be 2.2 nM; in experiment [5], 2.5 nM; in experiment [11], 1.7 nM; in experiment [6] it was 1.4 nM.

B4: scFv CD16A (CD16-5) (scFv)
scFv: QVQLVQSGAEVKKPGESLKVSCKASGYTFSSYYMHWVRQAPGQGLEWMGAIEPRGVRISYAQKFQGRVTMTRDTSTSTVYMELSSLRSEDTAVYYCARGSAYYYDFADYWGQGTLVTVSSGGSGGSGGSGGSGGSGGSSYVLTQPSSVSVAPGQTARITCGGHNIGSTNVHWYQQKPGQAPVLVIYQDSKRPSGIPERFSGSNSGNTATLTISGTQAMDEADYYCQVWDNYSVQFGGGTKLTVLAAAGSHHHHHH
For B4, the EC50 amounted to 24.9 nM in experiment [12]; 1.2 nM in experiment [4]; 0.8 nM in [5]; 1.1 nM in [11]; 1.4 nM in experiment [6].

B5: scFv CD16A (CD16-3) (scFv)
scFv: QVQLVQSGAEVKKPGESLKVSCKASGYTFTNYYMQWVRQAPGQGLEWMGVINPGGGSTSYAQKFQGRVTMTRDTSTSTVYMELSSLRSEDTAVYYCARGSAYYYDFADYWGQGTLVTVSSGGSGGSGGSGGSGGSGGSSYVLTQPSSVSVAPGQTARITCGGHNIGSQSVHWYQQKPGQAPVLVIYQDSKRPSGIPERFSGSNSGNTATLTISGTQAMDEADYYCQVWDNYSVVFGGGTKLTVLAAAGSHHHHHH
In the case of B5, the EC50 in experiment [4] was 1.2 nM; in experiment [5], 1.2 nM; in [11] it was 1.3 nM; in experiment [6], 1.4 nM.

B6: scFv CD16A (CD16-1) (scFv)
scFv: QVQLVQSGAEVKKPGESLKVSCKASGYTFTSYYMHWVRQAPGQGLEWMGIINPSGGSTSYAQKFQGRVTMTRDTSTSTVYMELSSLRSEDTAVYYCARGSAYYYDFADYWGQGTLVTVSSGGSGGSGGSGGSGGSGGSSYVLTQPSSVSVAPGQTATISCGGHNIGSKNVHWYQQRPGQSPVLVIYQDNKRPSGIPERFSGSNSGNTATLTISGTQAMDEADYYCQVWDNYSVLFGGGTKLTVLAAAGSHHHHHH
notes: also called LSIV21 scFv
As for B6, the half-maximal effective concentration (EC50 (read off the curve)) in experiment [13] was approximately 40 nM. In addition, the EC50 in [4] turned out to be 14.4 nM; in [5], 25.7 nM; in experiment [11], 9.5 nM; in experiment [6] it was 16.2 nM. Besides, the binding result in [14], in [15] and in [16] was “no binding” throughout.

B7: scFv CD16A (CD16-2) (scFv)
scFv: QVQLVQSGAEVKKPGESLKVSCKASGYTFTSYYMHWVRQAPGQGLEWMGAIEPMYGSTSYAQKFQGRVTMTRDTSTSTVYMELSSLRSEDTAVYYCARGSAYYYDFADYWGQGTLVTVSSGGSGGSGGSGGSGGSGGSSYVLTQPSSVSVAPGQTATISCGGHNIGSKNVHWYQQRPGQSPVLVIYQDNKRPSGIPERFSGSNSGNTATLTISGTQAMDEADYYCQVWDNYSVLFGGGTKLTVLAAAGSHHHHHH
notes: also called CD16-2 scFv
Turning to B7, the EC50 in experiment [1] turned out to be 1.6 nM; in experiment [8] it was 1.3 nM; in [4] it was 1.5 nM; in experiment [5], 2.8 nM; in experiment [11] it was 1.2 nM; in [6], 2.5 nM. Besides, the binding result in [14], in experiment [15] and in [16] was “no binding” each time. Also, the results for the “EC50 (read off the curve)” value in experiment [7] and in [17] were approximately 30 nM and approximately 10 nM, respectively.

B8: scFv CD16A (CD16-7) (scFv)
scFv: QVQLVQSGAEVKKPGESLKVSCKASGYTFTNYYMHWVRQAPGQGLEWMGVIEPDGGRRTYAQKFQGRVTMTRDTSTSTVYMELSSLRSEDTAVYYCARGSAYYYDFADYWGQGTLVTVSSGGSGGSGGSGGSGGSGGSEIVLTQSPATLSLSPGERATLSCRGHQGVSGDVHWYQQKPGQAPRLLIYQANKRASGIPARFSGSGSGTEFTLTISSLEPEDFAVYYCQQWDNYSVTFGQGTKVEIKAAAGSHHHHHH
As to B8, the EC50 in [4] was 1.8 nM; in experiment [5], 2.4 nM; in experiment [11] it was 1.7 nM; in [6] it was 1.6 nM.

B9: EGFR-1 scFv (scFv)
scFv: QVQLQESGPGLVKPSETLSLTCTVSGGSVSSGSYYWSWIRQPPGKGLEWIGYIYYSGSTNYNPSLKSRVTISVDTSKNQFSLKLSSVTAADTAVYYCARNPISIPAFDIWGQGTMVTVSSGGSGGSGGSGGSGGSGGSQPVLTQPPSVSVAPGKTARITCGGNNIGSKSVHWYQQKPGQAPVLVIYYDSDRPSGIPERFSGSNSGNTATLTISRVEAGDEADYYCQVWDTSSDHVLFGGGTKLTVLAAAGSHHHHHH
notes: also called scFv EGFR (EGFR-1); control scFv
For the molecule B9, the binding result in [18], in [19] and in [20] was “no binding” each time.

For the origin of these results see patent publication US20210169936A1 (AFFIMED, published 2021).
